The test deals with T1, human PD-1 (human, UniProt Q15116 25-167, limits assumed).
T1 construct: also called huPD-1
Put plainly: BLI, antibody on AHC tip, soluble PD-1.

T1 sequence (Q15116 25-167 limits assumed): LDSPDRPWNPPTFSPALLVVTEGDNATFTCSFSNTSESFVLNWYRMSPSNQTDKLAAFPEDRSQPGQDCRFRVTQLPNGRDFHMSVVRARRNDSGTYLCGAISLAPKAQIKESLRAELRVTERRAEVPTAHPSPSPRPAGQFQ

B1: PMAB142 (bispecific antibody, human IgG1, kappa)
heavy: EVQLLESGGGLVQPGGSLRLSCAASGFTFSNSDMSWVRQAPGKGLEWVSGITISGGSTYYADSVKGRFTISRDNSKNTLYLQMNSLRAEDTAVYYCARGRGGSGWLDYWGQGTLVTVSSASTKGPSVFPLAPSSKSTSGGTAALGCLVKDYFPEPVTVSWNSGALTSGVHTFPAVLQSSGLYSLSSVVTVPSSSLGTQTYICNVNHKPSNTKVDKKVEPKSCDKTHTCPPCPAPEAAGAPSVFLFPPKPKDTLMISRTPEVTCVVVDVSHEDPEVKFNWYVDGVEVHNAKTKPREEQYNSTYRVVSVLTVLHQDWLNGKEYKCKVSNKALPAPIEKTISKAKGQPREPQVYTLPPSREEMTKNQVSLTCLVKGFYPSDIAVEWESNGQPENNYKTTPPVLDSDGSFFLYSKLTVDKSRWQQGNVFSCSVMHEALHNHYTQKSLSLSPGGGGGSGGGGSGGGGSEVQLLESGGGLVQPGGSLRLSCAASGFTFSDFWMHWVRQAPGKGLEWISYISGDSGYTNYADSVKGRFTISRDNSKNTLYLQMNSLRAEDTAVYYCARDRPYYYYMDVWGKGTTVTVSSGGGGSGGGGSGGGGSGGGGSDIQMTQSPSSLSASVGDRVTITCRASQSVSRSLAWYQQKPGKAPKLLIYAASSLQSGVPSRFSGSGSGTDFTLTISSLQPEDFATYYCQQYKSYPVTFGQGTKVEIK
light: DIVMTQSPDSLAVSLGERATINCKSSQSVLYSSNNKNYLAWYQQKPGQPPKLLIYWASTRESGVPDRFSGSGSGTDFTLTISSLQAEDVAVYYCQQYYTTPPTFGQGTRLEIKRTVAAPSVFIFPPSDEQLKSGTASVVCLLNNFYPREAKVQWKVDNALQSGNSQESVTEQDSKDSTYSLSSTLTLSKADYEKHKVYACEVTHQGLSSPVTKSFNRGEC
Molecule B1 registered a dissociation constant (Kd) of 33 nM.

B2: PMAB175 (bispecific antibody, human IgG1, kappa)
heavy: EVQLLESGGGLVQPGGSLRLSCAASGFTFSSYDMSWVRQAPGKGLEWVSGITISGGSTYYADSVKGRFTISRDNSKNTLYLQMNSLRAEDTAVYYCARGRGGSGWLDYWGQGTLVTVSSASTKGPSVFPLAPSSKSTSGGTAALGCLVKDYFPEPVTVSWNSGALTSGVHTFPAVLQSSGLYSLSSVVTVPSSSLGTQTYICNVNHKPSNTKVDKKVEPKSCDKTHTCPPCPAPEAAGAPSVFLFPPKPKDTLMISRTPEVTCVVVDVSHEDPEVKFNWYVDGVEVHNAKTKPREEQYNSTYRVVSVLTVLHQDWLNGKEYKCKVSNKALPAPIEKTISKAKGQPREPQVYTLPPSREEMTKNQVSLTCLVKGFYPSDIAVEWESNGQPENNYKTTPPVLDSDGSFFLYSKLTVDKSRWQQGNVFSCSVMHEALHNHYTQKSLSLSPGGGGGSGGGGSGGGGSEVQLLESGGGLVQPGGSLRLSCAASGFTFSDFWMHWVRQAPGKGLEWISYISGDSGYTNYADSVKGRFTISRDNSKNTLYLQMNSLRAEDTAVYYCARDRPYYYYMDVWGKGTTVTVSSGGGGSGGGGSGGGGSGGGGSDIQMTQSPSSLSASVGDRVTITCRASQSVSRSLAWYQQKPGKAPKLLIYAASSLQSGVPSRFSGSGSGTDFTLTISSLQPEDFATYYCQQYKSYPVTFGQGTKVEIK
light: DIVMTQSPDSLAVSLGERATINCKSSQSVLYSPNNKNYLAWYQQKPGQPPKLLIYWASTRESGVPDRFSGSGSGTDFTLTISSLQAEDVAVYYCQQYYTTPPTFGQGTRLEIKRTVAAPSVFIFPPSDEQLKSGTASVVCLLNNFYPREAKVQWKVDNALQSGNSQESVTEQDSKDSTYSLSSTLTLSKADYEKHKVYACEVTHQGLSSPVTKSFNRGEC
On to B2, for which the Kd worked out at 77.1 nM.

B3: PMAB177 (bispecific antibody, human IgG1, kappa)
heavy: EVQLLESGGGLVQPGGSLRLSCAASGFTFSSYDMSWVRQAPGKGLEWVSGISISGGSTYYADSVKGRFTISRDNSKNTLYLQMNSLRAEDTAVYYCARGRGGSGWLDYWGQGTLVTVSSASTKGPSVFPLAPSSKSTSGGTAALGCLVKDYFPEPVTVSWNSGALTSGVHTFPAVLQSSGLYSLSSVVTVPSSSLGTQTYICNVNHKPSNTKVDKKVEPKSCDKTHTCPPCPAPEAAGAPSVFLFPPKPKDTLMISRTPEVTCVVVDVSHEDPEVKFNWYVDGVEVHNAKTKPREEQYNSTYRVVSVLTVLHQDWLNGKEYKCKVSNKALPAPIEKTISKAKGQPREPQVYTLPPSREEMTKNQVSLTCLVKGFYPSDIAVEWESNGQPENNYKTTPPVLDSDGSFFLYSKLTVDKSRWQQGNVFSCSVMHEALHNHYTQKSLSLSPGGGGGSGGGGSGGGGSEVQLLESGGGLVQPGGSLRLSCAASGFTFSDFWMHWVRQAPGKGLEWISYISGDSGYTNYADSVKGRFTISRDNSKNTLYLQMNSLRAEDTAVYYCARDRPYYYYMDVWGKGTTVTVSSGGGGSGGGGSGGGGSGGGGSDIQMTQSPSSLSASVGDRVTITCRASQSVSRSLAWYQQKPGKAPKLLIYAASSLQSGVPSRFSGSGSGTDFTLTISSLQPEDFATYYCQQYKSYPVTFGQGTKVEIK
light: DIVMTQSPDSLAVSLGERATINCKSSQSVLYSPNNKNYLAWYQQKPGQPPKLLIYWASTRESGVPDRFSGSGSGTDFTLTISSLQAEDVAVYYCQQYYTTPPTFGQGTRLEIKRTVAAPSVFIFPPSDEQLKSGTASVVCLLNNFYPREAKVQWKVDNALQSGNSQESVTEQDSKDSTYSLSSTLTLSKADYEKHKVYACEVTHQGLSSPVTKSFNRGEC
On to B3, for which the Kd was determined as 809 nM.

B4: PMAB176 (bispecific antibody, human IgG1, kappa)
heavy: EVQLLESGGGLVQPGGSLRLSCAASGFTFSSYDMSWVRQAPGKGLEWVSAITISGGSTYYADSVKGRFTISRDNSKNTLYLQMNSLRAEDTAVYYCARGRGGSGWLDYWGQGTLVTVSSASTKGPSVFPLAPSSKSTSGGTAALGCLVKDYFPEPVTVSWNSGALTSGVHTFPAVLQSSGLYSLSSVVTVPSSSLGTQTYICNVNHKPSNTKVDKKVEPKSCDKTHTCPPCPAPEAAGAPSVFLFPPKPKDTLMISRTPEVTCVVVDVSHEDPEVKFNWYVDGVEVHNAKTKPREEQYNSTYRVVSVLTVLHQDWLNGKEYKCKVSNKALPAPIEKTISKAKGQPREPQVYTLPPSREEMTKNQVSLTCLVKGFYPSDIAVEWESNGQPENNYKTTPPVLDSDGSFFLYSKLTVDKSRWQQGNVFSCSVMHEALHNHYTQKSLSLSPGGGGGSGGGGSGGGGSEVQLLESGGGLVQPGGSLRLSCAASGFTFSDFWMHWVRQAPGKGLEWISYISGDSGYTNYADSVKGRFTISRDNSKNTLYLQMNSLRAEDTAVYYCARDRPYYYYMDVWGKGTTVTVSSGGGGSGGGGSGGGGSGGGGSDIQMTQSPSSLSASVGDRVTITCRASQSVSRSLAWYQQKPGKAPKLLIYAASSLQSGVPSRFSGSGSGTDFTLTISSLQPEDFATYYCQQYKSYPVTFGQGTKVEIK
light: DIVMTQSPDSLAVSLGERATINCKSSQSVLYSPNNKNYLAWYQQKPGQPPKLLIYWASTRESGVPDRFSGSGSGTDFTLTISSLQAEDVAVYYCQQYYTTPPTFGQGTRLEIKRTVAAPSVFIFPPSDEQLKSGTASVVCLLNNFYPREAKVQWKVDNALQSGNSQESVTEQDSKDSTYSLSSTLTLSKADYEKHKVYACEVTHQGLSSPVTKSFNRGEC
Take B4: the Kd came to 894 nM.

B5: PMAB178 (bispecific antibody, human IgG1, kappa)
heavy: EVQLLESGGGLVQPGGSLRLSCAASGFTFSSYDMSWVRQAPGKGLEWVSGITGSGGSTYYADSVKGRFTISRDNSKNTLYLQMNSLRAEDTAVYYCARGRGGSGWLDYWGQGTLVTVSSASTKGPSVFPLAPSSKSTSGGTAALGCLVKDYFPEPVTVSWNSGALTSGVHTFPAVLQSSGLYSLSSVVTVPSSSLGTQTYICNVNHKPSNTKVDKKVEPKSCDKTHTCPPCPAPEAAGAPSVFLFPPKPKDTLMISRTPEVTCVVVDVSHEDPEVKFNWYVDGVEVHNAKTKPREEQYNSTYRVVSVLTVLHQDWLNGKEYKCKVSNKALPAPIEKTISKAKGQPREPQVYTLPPSREEMTKNQVSLTCLVKGFYPSDIAVEWESNGQPENNYKTTPPVLDSDGSFFLYSKLTVDKSRWQQGNVFSCSVMHEALHNHYTQKSLSLSPGGGGGSGGGGSGGGGSEVQLLESGGGLVQPGGSLRLSCAASGFTFSDFWMHWVRQAPGKGLEWISYISGDSGYTNYADSVKGRFTISRDNSKNTLYLQMNSLRAEDTAVYYCARDRPYYYYMDVWGKGTTVTVSSGGGGSGGGGSGGGGSGGGGSDIQMTQSPSSLSASVGDRVTITCRASQSVSRSLAWYQQKPGKAPKLLIYAASSLQSGVPSRFSGSGSGTDFTLTISSLQPEDFATYYCQQYKSYPVTFGQGTKVEIK
light: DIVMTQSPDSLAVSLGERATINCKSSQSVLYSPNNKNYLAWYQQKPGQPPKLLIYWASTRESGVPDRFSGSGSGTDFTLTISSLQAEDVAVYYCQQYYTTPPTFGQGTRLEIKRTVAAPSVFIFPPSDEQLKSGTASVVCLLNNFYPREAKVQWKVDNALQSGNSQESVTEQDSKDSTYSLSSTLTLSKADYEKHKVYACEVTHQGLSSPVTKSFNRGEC
In the case of B5, binding was put at a Kd of 1300 nM.

B6: PMAB143 (bispecific antibody, human IgG1, kappa)
heavy: EVQLLESGGGLVQPGGSLRLSCAASGFTFSNSDMSWVRQAPGKGLEWVSGITISGGSTYYADSVKGRFTISRDNSKNTLYLQMNSLRAEDTAVYYCARGRGGSGWLDYWGQGTLVTVSSASTKGPSVFPLAPSSKSTSGGTAALGCLVKDYFPEPVTVSWNSGALTSGVHTFPAVLQSSGLYSLSSVVTVPSSSLGTQTYICNVNHKPSNTKVDKKVEPKSCDKTHTCPPCPAPEAAGAPSVFLFPPKPKDTLMISRTPEVTCVVVDVSHEDPEVKFNWYVDGVEVHNAKTKPREEQYNSTYRVVSVLTVLHQDWLNGKEYKCKVSNKALPAPIEKTISKAKGQPREPQVYTLPPSREEMTKNQVSLTCLVKGFYPSDIAVEWESNGQPENNYKTTPPVLDSDGSFFLYSKLTVDKSRWQQGNVFSCSVMHEALHNHYTQKSLSLSPGGGGGSGGGGSGGGGSEVQLLESGGGLVQPGGSLRLSCAASGFTFSDFWMHWVRQAPGKGLEWISYISGDSGYTNYADSVKGRFTISRDNSKNTLYLQMNSLRAEDTAVYYCARDRPYYYYMDVWGKGTTVTVSSGGGGSGGGGSGGGGSGGGGSDIQMTQSPSSLSASVGDRVTITCRASQSVSRSLAWYQQKPGKAPKLLIYAASSLQSGVPSRFSGSGSGTDFTLTISSLQPEDFATYYCQQYKSYPVTFGQGTKVEIK
light: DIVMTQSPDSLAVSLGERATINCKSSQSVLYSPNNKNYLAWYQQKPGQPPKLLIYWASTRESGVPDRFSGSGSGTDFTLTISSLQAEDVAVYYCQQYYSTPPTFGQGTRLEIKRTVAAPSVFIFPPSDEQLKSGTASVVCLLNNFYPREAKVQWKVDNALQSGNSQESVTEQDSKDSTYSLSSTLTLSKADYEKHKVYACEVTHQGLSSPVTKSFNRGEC
B6 displayed a Kd of 17 nM.
